Measured values: the Immune Epitope Database (IEDB)

Tests used:
[1] = molecular target: HLA-A*29:02; assay: IEDB peptide-MHC binding, purified MHC/competitive/fluorescence; filed as Kd, often an IC50 or EC50 that approximates it; ≥ and ≤ were set here for values at or beyond the usual limits of such assays
[2] = molecular target: HLA-A*02:03; assay: as above
[3] = molecular target: HLA-A*02:12; assay: as above
[4] = molecular target: HLA-B*18:01; assay: as above
[5] = molecular target: HLA-A*23:01; assay: as above
[6] = molecular target: HLA-B*51:01; assay: as above
[7] = molecular target: HLA-B*15:01; assay: as above
[8] = molecular target: HLA-B*39:01; assay: as above
[9] = molecular target: HLA-B*57:01; assay: as above
[10] = molecular target: HLA-A*24:03; assay: as above
[11] = molecular target: HLA-A*26:01; assay: as above
[12] = molecular target: HLA-B*46:01; assay: as above
[13] = molecular target: HLA-A*03:01; assay: as above
[14] = molecular target: HLA-A*02:01; assay: as above
[15] = molecular target: HLA-A*02:11; assay: as above
[16] = molecular target: HLA-B*27:03; assay: as above
[17] = molecular target: HLA-A*02:19; assay: as above
[18] = molecular target: HLA-A*02:16; assay: as above; settings: source organism: Burkholderia vietnamiensis G4
[19] = molecular target: HLA-B*27:05; assay: IEDB peptide-MHC binding, purified MHC/direct/fluorescence; filed as Kd, often an IC50 or EC50 that approximates it; ≥ and ≤ were set here for values at or beyond the usual limits of such assays
[20] = molecular target: HLA-B*08:01; assay: as above; settings: source organism: Klebsiella pneumoniae
[21] = molecular target: HLA-B*40:01; assay: as above
[22] = molecular target: HLA-B*15:01; assay: as above
[23] = molecular target: HLA-A*69:01; assay: as above
[24] = molecular target: HLA-A*24:03; assay: as above; settings: source organism: Klebsiella pneumoniae
[25] = molecular target: HLA-A*01:01; assay: as above
[26] = molecular target: HLA-B*58:01; assay: as above
[27] = molecular target: HLA-A*26:01; assay: as above
[28] = molecular target: HLA-B*07:02; assay: as above
[29] = molecular target: HLA-A*11:01; assay: as above
[30] = molecular target: HLA-A*03:01; assay: as above
[31] = molecular target: HLA-A*02:01; assay: as above
[32] = molecular target: HLA-A*31:01; assay: as above
[33] = molecular target: HLA-A*02:50; assay: IEDB peptide-MHC binding, purified MHC/competitive/fluorescence; filed as Kd, often an IC50 or EC50 that approximates it; ≥ and ≤ were set here for values at or beyond the usual limits of such assays
[34] = molecular target: HLA-B*15:17; assay: as above; settings: source organism: Bacillus anthracis str. Ames
[35] = molecular target: HLA-A*68:02; assay: as above; settings: source organism: Bacillus anthracis str. Ames
[36] = molecular target: HLA-A*69:01; assay: as above; settings: source organism: Bacillus anthracis str. Ames
[37] = molecular target: HLA-B*08:02; assay: IEDB peptide-MHC binding, purified MHC/direct/fluorescence; filed as Kd, often an IC50 or EC50 that approximates it; ≥ and ≤ were set here for values at or beyond the usual limits of such assays; settings: source organism: Giardia lamblia ATCC 50803
[38] = molecular target: HLA-A*02:06; assay: as above; settings: source organism: Giardia lamblia ATCC 50803
[39] = molecular target: HLA-A*02:12; assay: as above; settings: source organism: Giardia lamblia ATCC 50803
[40] = molecular target: HLA-B*18:01; assay: as above; settings: source organism: Giardia lamblia ATCC 50803
[41] = molecular target: HLA-A*24:02; assay: as above; settings: source organism: Giardia lamblia ATCC 50803
[42] = molecular target: HLA-B*46:01; assay: as above; settings: source organism: Giardia lamblia ATCC 50803
[43] = molecular target: HLA-A*02:11; assay: as above; settings: source organism: Giardia lamblia ATCC 50803
[44] = molecular target: HLA-A*02:19; assay: as above; settings: source organism: Giardia lamblia ATCC 50803
[45] = molecular target: HLA-B*44:02; assay: as above; settings: source organism: Giardia lamblia ATCC 50803
[46] = molecular target: HLA-A*02:16; assay: as above; settings: source organism: Giardia lamblia ATCC 50803
[47] = source organism: Burkholderia vietnamiensis G4
[48] = source organism: Klebsiella pneumoniae
[49] = source organism: Bacillus anthracis str. Ames
[50] = source organism: Giardia lamblia ATCC 50803

GVNDTEAHA
Kd [1, 47]: ≥ 20 µM
Kd [2, 47]: ≥ 20 µM
Kd [3, 47]: ≥ 20 µM
Kd [4, 47]: ≥ 20 µM
Kd [5, 47]: ≥ 20 µM
Kd [6, 47]: ≥ 20 µM
Kd [7, 47]: ≥ 20 µM
Kd [8, 47]: ≥ 20 µM
Kd [9, 47]: ≥ 20 µM
Kd [10, 47]: ≥ 20 µM
Kd [11, 47]: ≥ 20 µM
Kd [12, 47]: ≥ 20 µM
Kd [13, 47]: ≥ 20 µM
Kd [14, 47]: ≥ 20 µM
Kd [15, 47]: ≥ 20 µM
Kd [16, 47]: ≥ 20 µM
Kd [17, 47]: ≥ 20 µM
Kd [18]: 0.365 µM

LLQEKYGLI
Kd [19, 48]: ≥ 20 µM
Kd [20]: 7.89 µM
Kd [21, 48]: ≥ 20 µM
Kd [22, 48]: ≥ 20 µM
Kd [23, 48]: ≥ 20 µM
Kd [24]: ≥ 20 µM
Kd [25, 48]: ≥ 20 µM
Kd [26, 48]: ≥ 20 µM
Kd [27, 48]: ≥ 20 µM
Kd [28, 48]: ≥ 20 µM
Kd [29, 48]: ≥ 20 µM
Kd [30, 48]: ≥ 20 µM
Kd [31, 48]: 1.18 µM
Kd [32, 48]: ≥ 20 µM
Kd [33, 48]: 0.0177 µM

VILYFMYRK
Kd [1, 49]: ≥ 20 µM
Kd [2, 49]: ≥ 20 µM
Kd [34]: ≥ 20 µM
Kd [35]: ≥ 20 µM
Kd [3, 49]: ≥ 20 µM
Kd [4, 49]: ≥ 20 µM
Kd [5, 49]: ≥ 20 µM
Kd [6, 49]: ≥ 20 µM
Kd [7, 49]: ≥ 20 µM
Kd [8, 49]: ≥ 20 µM
Kd [9, 49]: ≥ 20 µM
Kd [36]: ≥ 20 µM
Kd [10, 49]: ≥ 20 µM
Kd [11, 49]: ≥ 20 µM
Kd [12, 49]: ≥ 20 µM
Kd [13, 49]: 0.528 µM
Kd [14, 49]: ≥ 20 µM
Kd [15, 49]: ≥ 20 µM
Kd [16, 49]: ≥ 20 µM
Kd [17, 49]: ≥ 20 µM

YLDMVLAFL
Kd [37]: ≥ 20 µM
Kd [38]: ≤ 0.001 µM
Kd [19, 50]: ≥ 20 µM
Kd [39]: ≤ 0.001 µM
Kd [40]: ≥ 20 µM
Kd [21, 50]: ≥ 20 µM
Kd [22, 50]: ≥ 20 µM
Kd [23, 50]: ≥ 20 µM
Kd [25, 50]: ≥ 20 µM
Kd [26, 50]: ≥ 20 µM
Kd [27, 50]: ≥ 20 µM
Kd [41]: ≥ 20 µM
Kd [28, 50]: ≥ 20 µM
Kd [42]: ≥ 20 µM
Kd [29, 50]: ≥ 20 µM
Kd [30, 50]: ≥ 20 µM
Kd [31, 50]: 0.0185 µM
Kd [43]: ≤ 0.001 µM
Kd [44]: ≤ 0.001 µM
Kd [45]: ≥ 20 µM
Kd [32, 50]: ≥ 20 µM
Kd [46]: ≤ 0.001 µM
Kd [33, 50]: ≤ 0.0001 µM
